Reference: paper PMC10786891, “Massively parallel profiling of RNA-targeting CRISPR-Cas13d”

T1: EsCas13d, nuclease-dead (Eubacterium siraeum, UniProt B0MS50, R295A;H300A;R849A;H854A)
T1 sequence: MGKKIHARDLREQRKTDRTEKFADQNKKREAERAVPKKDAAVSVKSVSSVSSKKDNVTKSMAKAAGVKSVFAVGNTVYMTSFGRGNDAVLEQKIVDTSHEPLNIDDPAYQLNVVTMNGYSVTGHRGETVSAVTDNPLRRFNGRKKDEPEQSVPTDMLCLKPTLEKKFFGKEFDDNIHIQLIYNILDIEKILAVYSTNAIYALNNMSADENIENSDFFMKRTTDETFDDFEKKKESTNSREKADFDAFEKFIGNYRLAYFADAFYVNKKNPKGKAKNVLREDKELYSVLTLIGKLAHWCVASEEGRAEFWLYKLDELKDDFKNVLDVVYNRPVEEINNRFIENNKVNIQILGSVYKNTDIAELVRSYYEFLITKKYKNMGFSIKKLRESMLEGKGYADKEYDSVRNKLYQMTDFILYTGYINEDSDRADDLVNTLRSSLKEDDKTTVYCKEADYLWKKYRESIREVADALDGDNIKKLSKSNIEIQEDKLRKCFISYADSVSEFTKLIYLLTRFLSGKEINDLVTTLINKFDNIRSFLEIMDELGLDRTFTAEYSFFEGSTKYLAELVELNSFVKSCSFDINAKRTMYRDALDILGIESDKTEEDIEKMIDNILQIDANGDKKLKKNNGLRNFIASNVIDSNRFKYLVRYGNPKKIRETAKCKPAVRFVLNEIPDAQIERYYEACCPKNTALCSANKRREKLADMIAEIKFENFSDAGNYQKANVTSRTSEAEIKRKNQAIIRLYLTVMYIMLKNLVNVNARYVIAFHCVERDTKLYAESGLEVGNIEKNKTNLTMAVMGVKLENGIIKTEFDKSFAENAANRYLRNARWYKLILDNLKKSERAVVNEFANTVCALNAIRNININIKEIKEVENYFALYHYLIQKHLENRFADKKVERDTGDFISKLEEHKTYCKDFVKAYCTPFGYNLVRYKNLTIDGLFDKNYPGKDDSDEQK

B1: target 1 insA 3' of 19,insG 3' of 9 (mixed)
RNA 1: CACCCGUGCAAAAAUGCAGGGGUCUAAAACUGAGCGGAUAACCUCUCUAUGG
RNA 2: GGGAAUGGAUCCACAUCUACGAAUUCGUACCAUAAGAGAGGUUAGUCCGCUCACCGAGAUCGGAAGAGCACACGU
B2: target 1 U11C,A18U (mixed)
RNA 1: CACCCGUGCAAAAAUGCAGGGGUCUAAAACUGAGCGGAUAACCUCUCUAUGG
RNA 2: GGGAAUGGAUCCACAUCUACGAAUUCGUACCAUUGAGAGGCUAUCCGCUCACCGAGAUCGGAAGAGCACACGU
B3: target 1 insC 3' of 1,insU 3' of 1 (mixed)
RNA 1: CACCCGUGCAAAAAUGCAGGGGUCUAAAACUGAGCGGAUAACCUCUCUAUGG
RNA 2: GGGAAUGGAUCCACAUCUACGAAUUCGUACCAUAGAGAGGUUAUCCGCUCACUCCGAGAUCGGAAGAGCACACGU
B4: target 1 insA 3' of 22,insA 3' of 12 (mixed)
RNA 1: CACCCGUGCAAAAAUGCAGGGGUCUAAAACUGAGCGGAUAACCUCUCUAUGG
RNA 2: GGGAAUGGAUCCACAUCUACGAAUUCGUACACAUAGAGAGGAUUAUCCGCUCACCGAGAUCGGAAGAGCACACGU
B5: target 1 insA 3' of 21,insG 3' of 6 (mixed)
RNA 1: CACCCGUGCAAAAAUGCAGGGGUCUAAAACUGAGCGGAUAACCUCUCUAUGG
RNA 2: GGGAAUGGAUCCACAUCUACGAAUUCGUACCAAUAGAGAGGUUAUCCGGCUCACCGAGAUCGGAAGAGCACACGU
B6: target 1 insC 3' of 20,insU 3' of 13 (mixed)
RNA 1: CACCCGUGCAAAAAUGCAGGGGUCUAAAACUGAGCGGAUAACCUCUCUAUGG
RNA 2: GGGAAUGGAUCCACAUCUACGAAUUCGUACCACUAGAGAGUGUUAUCCGCUCACCGAGAUCGGAAGAGCACACGU
B7: target 1 insC 3' of 11,insA 3' of 7 (mixed)
RNA 1: CACCCGUGCAAAAAUGCAGGGGUCUAAAACUGAGCGGAUAACCUCUCUAUGG
RNA 2: GGGAAUGGAUCCACAUCUACGAAUUCGUACCAUAGAGAGGUCUAUCACGCUCACCGAGAUCGGAAGAGCACACGU
B8: target 1 insC 3' of 13,insG 3' of 7 (mixed)
RNA 1: CACCCGUGCAAAAAUGCAGGGGUCUAAAACUGAGCGGAUAACCUCUCUAUGG
RNA 2: GGGAAUGGAUCCACAUCUACGAAUUCGUACCAUAGAGAGCGUUAUCGCGCUCACCGAGAUCGGAAGAGCACACGU
B9: target 1 MT (mixed)
RNA 1: CACCCGUGCAAAAAUGCAGGGGUCUAAAACUGAGCGGAUAACCUCUCUAUGG
RNA 2: GGGAAUGGAUCCACAUCUACGAAUUCGUACCAUAGAGAGGUUAUCCGCUCACCGAGAUCGGAAGAGCACACGU
B10: target 1 A1C (mixed)
RNA 1: CACCCGUGCAAAAAUGCAGGGGUCUAAAACUGAGCGGAUAACCUCUCUAUGG
RNA 2: GGGAAUGGAUCCACAUCUACGAAUUCGUACCAUAGAGAGGUUAUCCGCUCCCCGAGAUCGGAAGAGCACACGU
B11: target 1 A1U (mixed)
RNA 1: CACCCGUGCAAAAAUGCAGGGGUCUAAAACUGAGCGGAUAACCUCUCUAUGG
RNA 2: GGGAAUGGAUCCACAUCUACGAAUUCGUACCAUAGAGAGGUUAUCCGCUCUCCGAGAUCGGAAGAGCACACGU
B12: target 1 U10A,C22G (mixed)
RNA 1: CACCCGUGCAAAAAUGCAGGGGUCUAAAACUGAGCGGAUAACCUCUCUAUGG
RNA 2: GGGAAUGGAUCCACAUCUACGAAUUCGUAGCAUAGAGAGGUAAUCCGCUCACCGAGAUCGGAAGAGCACACGU
B13: target 1 A1G,U19C (mixed)
RNA 1: CACCCGUGCAAAAAUGCAGGGGUCUAAAACUGAGCGGAUAACCUCUCUAUGG
RNA 2: GGGAAUGGAUCCACAUCUACGAAUUCGUACCACAGAGAGGUUAUCCGCUCGCCGAGAUCGGAAGAGCACACGU
B14: target 1 C4G,A16G (mixed)
RNA 1: CACCCGUGCAAAAAUGCAGGGGUCUAAAACUGAGCGGAUAACCUCUCUAUGG
RNA 2: GGGAAUGGAUCCACAUCUACGAAUUCGUACCAUAGGGAGGUUAUCCGGUCACCGAGAUCGGAAGAGCACACGU
B15: target 1 C7A,U8G (mixed)
RNA 1: CACCCGUGCAAAAAUGCAGGGGUCUAAAACUGAGCGGAUAACCUCUCUAUGG
RNA 2: GGGAAUGGAUCCACAUCUACGAAUUCGUACCAUAGAGAGGUUAGACGCUCACCGAGAUCGGAAGAGCACACGU
B16: target 1 A16C,A18U (mixed)
RNA 1: CACCCGUGCAAAAAUGCAGGGGUCUAAAACUGAGCGGAUAACCUCUCUAUGG
RNA 2: GGGAAUGGAUCCACAUCUACGAAUUCGUACCAUUGCGAGGUUAUCCGCUCACCGAGAUCGGAAGAGCACACGU
B17: target 1 insC 3' of 17,insU 3' of 16 (mixed)
RNA 1: CACCCGUGCAAAAAUGCAGGGGUCUAAAACUGAGCGGAUAACCUCUCUAUGG
RNA 2: GGGAAUGGAUCCACAUCUACGAAUUCGUACCAUAGCAUGAGGUUAUCCGCUCACCGAGAUCGGAAGAGCACACGU
B18: target 1 U19C (mixed)
RNA 1: CACCCGUGCAAAAAUGCAGGGGUCUAAAACUGAGCGGAUAACCUCUCUAUGG
RNA 2: GGGAAUGGAUCCACAUCUACGAAUUCGUACCACAGAGAGGUUAUCCGCUCACCGAGAUCGGAAGAGCACACGU
B19: target 1 insU 3' of 4,insG 3' of 3 (mixed)
RNA 1: CACCCGUGCAAAAAUGCAGGGGUCUAAAACUGAGCGGAUAACCUCUCUAUGG
RNA 2: GGGAAUGGAUCCACAUCUACGAAUUCGUACCAUAGAGAGGUUAUCCGCUUGCACCGAGAUCGGAAGAGCACACGU
B20: target 1 U8G,A16G (mixed)
RNA 1: CACCCGUGCAAAAAUGCAGGGGUCUAAAACUGAGCGGAUAACCUCUCUAUGG
RNA 2: GGGAAUGGAUCCACAUCUACGAAUUCGUACCAUAGGGAGGUUAGCCGCUCACCGAGAUCGGAAGAGCACACGU
B21: target 1 U8C,A20C (mixed)
RNA 1: CACCCGUGCAAAAAUGCAGGGGUCUAAAACUGAGCGGAUAACCUCUCUAUGG
RNA 2: GGGAAUGGAUCCACAUCUACGAAUUCGUACCCUAGAGAGGUUACCCGCUCACCGAGAUCGGAAGAGCACACGU
B22: target 1 C6A,A18C (mixed)
RNA 1: CACCCGUGCAAAAAUGCAGGGGUCUAAAACUGAGCGGAUAACCUCUCUAUGG
RNA 2: GGGAAUGGAUCCACAUCUACGAAUUCGUACCAUCGAGAGGUUAUCAGCUCACCGAGAUCGGAAGAGCACACGU
B23: target 1 insC 3' of 1,insG 3' of 1 (mixed)
RNA 1: CACCCGUGCAAAAAUGCAGGGGUCUAAAACUGAGCGGAUAACCUCUCUAUGG
RNA 2: GGGAAUGGAUCCACAUCUACGAAUUCGUACCAUAGAGAGGUUAUCCGCUCACGCCGAGAUCGGAAGAGCACACGU
B24: target 1 insA 3' of 15,insU 3' of 13 (mixed)
RNA 1: CACCCGUGCAAAAAUGCAGGGGUCUAAAACUGAGCGGAUAACCUCUCUAUGG
RNA 2: GGGAAUGGAUCCACAUCUACGAAUUCGUACCAUAGAGAAGUGUUAUCCGCUCACCGAGAUCGGAAGAGCACACGU
B25: target 1 A1G (mixed)
RNA 1: CACCCGUGCAAAAAUGCAGGGGUCUAAAACUGAGCGGAUAACCUCUCUAUGG
RNA 2: GGGAAUGGAUCCACAUCUACGAAUUCGUACCAUAGAGAGGUUAUCCGCUCGCCGAGAUCGGAAGAGCACACGU
B26: target 1 C6G,U10G (mixed)
RNA 1: CACCCGUGCAAAAAUGCAGGGGUCUAAAACUGAGCGGAUAACCUCUCUAUGG
RNA 2: GGGAAUGGAUCCACAUCUACGAAUUCGUACCAUAGAGAGGUGAUCGGCUCACCGAGAUCGGAAGAGCACACGU
B27: target 1 C2U,U19A (mixed)
RNA 1: CACCCGUGCAAAAAUGCAGGGGUCUAAAACUGAGCGGAUAACCUCUCUAUGG
RNA 2: GGGAAUGGAUCCACAUCUACGAAUUCGUACCAAAGAGAGGUUAUCCGCUUACCGAGAUCGGAAGAGCACACGU
B28: target 1 A9C (mixed)
RNA 1: CACCCGUGCAAAAAUGCAGGGGUCUAAAACUGAGCGGAUAACCUCUCUAUGG
RNA 2: GGGAAUGGAUCCACAUCUACGAAUUCGUACCAUAGAGAGGUUCUCCGCUCACCGAGAUCGGAAGAGCACACGU

Each binder was assayed against T1, EsCas13d, nuclease-dead (assay: crRNA (strand 1, pre-loaded); Mg2+; 40 mM Tris-HCl pH 7.5, 150 mM NaCl, 6 mM MgCl2, 1 mM DTT, 0.1% Tween-20, 0.2 mg/ml BSA; 25 C; 10 min per concentration, then washed). Settings: tags: His6-TwinStrep-SUMO cleaved; N-terminal SNAP kept (SNAP-Surface 488); label: 3' end held by stalled T7 RNA polymerase.

Question: Which Kd does the source give for B1 here?
Answer: 37 ± 4 nM

Question: Which Kd does the source give for B2 here?
Answer: 45 ± 6 nM

Question: For B3, which Kd is on record?
Answer: 10 ± 0.4 nM

Question: With B4 as the binder, how does the Kd read?
Answer: 47 ± 8 nM

Question: With B5 as the binder, how does the Kd read?
Answer: 22.1 ± 2.3 nM

Question: With B6 as the binder, how does the Kd read?
Answer: 6.9 ± 0.7 nM

Question: How did the Kd turn out when B7 was run?
Answer: 25.7 ± 1.5 nM

Question: With B8 as the binder, how does the Kd read?
Answer: 16.1 ± 1 nM

Question: How did the Kd turn out when B9 was run?
Answer: 8.62 ± 0.06 nM

Question: With B10 as the binder, how does the Kd read?
Answer: 24 ± 4 nM

Question: For B11, which Kd is on record?
Answer: 8.5 ± 0.6 nM

Question: For B12, which Kd is on record?
Answer: 76 ± 25 nM

Question: B13 was tested. Which Kd did it give?
Answer: 35 ± 5 nM

Question: For B14, which Kd is on record?
Answer: 16.3 ± 3.2 nM

Question: B15 was tested. Which Kd did it give?
Answer: 9.8 ± 1.1 nM

Question: How did the Kd turn out when B16 was run?
Answer: 89 ± 11 nM

Question: How did the Kd turn out when B17 was run?
Answer: 40 ± 6 nM

Question: B18 was tested. Which Kd did it give?
Answer: 21 ± 1.3 nM

Question: B19 was tested. Which Kd did it give?
Answer: 7.77 ± 0.31 nM

Question: With B20 as the binder, how does the Kd read?
Answer: 39.4 ± 3.5 nM

Question: How did the Kd turn out when B21 was run?
Answer: 65 ± 7 nM

Question: B22 was tested. Which Kd did it give?
Answer: 54 ± 4 nM

Question: With B23 as the binder, how does the Kd read?
Answer: 9 ± 0.7 nM

Question: How did the Kd turn out when B24 was run?
Answer: 19 ± 4 nM

Question: B25 was tested. Which Kd did it give?
Answer: 8.6 ± 0.7 nM

Question: With B26 as the binder, how does the Kd read?
Answer: 15.2 ± 0.9 nM

Question: With B27 as the binder, how does the Kd read?
Answer: 26.5 ± 2.9 nM

Question: With B28 as the binder, how does the Kd read?
Answer: 15 ± 0.7 nM
